Reference: patent publication US20230303667A1 (EMORY UNIVERSITY, published 2023)

T1: Ebola Zaire (Kikwit strain) glycoprotein (Ebola Zaire (Kikwit strain), UniProt P87666 33-676)
T1 sequence: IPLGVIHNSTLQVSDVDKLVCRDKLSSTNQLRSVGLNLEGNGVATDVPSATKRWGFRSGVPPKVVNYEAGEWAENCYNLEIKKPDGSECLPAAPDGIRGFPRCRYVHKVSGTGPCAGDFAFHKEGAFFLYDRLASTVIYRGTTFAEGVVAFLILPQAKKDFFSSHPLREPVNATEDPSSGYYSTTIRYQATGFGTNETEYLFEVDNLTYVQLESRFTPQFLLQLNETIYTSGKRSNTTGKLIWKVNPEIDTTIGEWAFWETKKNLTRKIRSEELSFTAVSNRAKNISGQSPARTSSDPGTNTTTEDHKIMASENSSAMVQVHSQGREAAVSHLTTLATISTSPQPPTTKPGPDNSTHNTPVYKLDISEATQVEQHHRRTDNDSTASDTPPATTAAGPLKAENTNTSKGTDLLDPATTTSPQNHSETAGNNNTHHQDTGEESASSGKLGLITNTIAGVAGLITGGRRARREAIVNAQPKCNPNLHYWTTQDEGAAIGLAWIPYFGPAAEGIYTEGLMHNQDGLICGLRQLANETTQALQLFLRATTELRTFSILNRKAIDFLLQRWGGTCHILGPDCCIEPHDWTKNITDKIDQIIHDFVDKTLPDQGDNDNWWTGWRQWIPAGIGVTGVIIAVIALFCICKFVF

B1: 2.1.1D05 (antibody, V domains shown)
VH: EVQLVESGGGLVKPGGSLRLSCAASGFTFSNAWMNWVRQAPGKGLEWVGRIKSKTDGGAADYAAPVKGRFTISRDDSKNTLYLQMNSLKTEDTAVYFCTTVYRYNYDSVWGQGTLVTVSS
VL: QSVLTQPPSVSGAPGQRVTISCTGSSSNIGAGYDVYWYQQLPGTAPKLLIYGNSNRPSGVPDRFSGSKSGTSASLAITGLQAEDEADYYCQSFDSSLRDSWVFGGGTKLTVL
B2: 5.1.10B3 (antibody, V domains shown)
VH: EVQLVESGGGLVQPGGSLRLSCAASGFTFRSYDMHWVRQATGKGLEWVSAIGTAGDTYYPGSVKGRFTISRENAKNSLYLQMNSLRAEDTAVYYCARVRFGDTAVDYWGQGTLVTVSS
VL: DIQMTQSPSSLSASVGDRVTITCRASQSISSFLNWHQQKPGKAPKLLIYAASSLQSGVPSRFSGSGSGTDFTLTISSLQPEDFAIYYCQQSYISPFTFGPGTKVDIK
B3: 9.6.3D06 (antibody, V domains shown)
VH: EVQLLESGGGLVQPGGSLRLSCAASGFTFSKYAMIWVRQAPGKGLQWVAGINKSGGRTYYADSVRGRFTISRDNSKNTLYLQMKSLRADDTAMYYCAKEGSPLSDVLLVAAPFGWFDPWGQGTLVTVSS
VL: DIQMTQSPSTLSASVGDRVTITCRASQRINNLVAWYQQKPGKAPKVMIYDASSLKSGVPSRFSGSGSGTEFTLTISSLQPDDFATYFCQQYDTDSGWTFGQGTKVEIK
B4: 5.6.1A02 (antibody, V domains shown)
VH: EVQLVESGGGLIQPGGSLRLSCAASGFAVRSNYLSWVRQAPGKGLEWVSLIYSGGLTAYADSVEGRFTISRDNSKNTLYLQMNSLRVEDTALYYCARVASSAGTFYYGMDVWGQGTTVTVSS
VL: not shown
B5: 2.1.1D07 (antibody, V domains shown)
VH: EVQLLESGGGLVQPGGSLRLSCAASGFTFSTYGMSWVRQAPGKGLEWVSGISGSGGITYYADSVRGRFTISRDNSKNTLYLRMNSLRAEDTAVYYCAKVGEYYDFWSGYSPFEYWGQGTL
VL: EIVLTQSPGTLSLSPGERATLSCRASQSVSSSYLAWYQQKPGQAPRLLIYGAFNRATGIPDRFSGSGSGTDFTLTISRLEPEDFAVYYCQLYGSSPWTFGQGTKVEIK

Target: T1, Ebola Zaire (Kikwit strain) glycoprotein
Assay: cell-based or functional assay

| Binder | PRNT50 (ug/ml) for Ebola Zaire (Kikwit strain) |
| --- | --- |
| B1 | 3.13 µg/mL |
| B2 | 3.13 µg/mL |
| B3 | 1.57 µg/mL |
| B4 | 0.195 µg/mL |
| B5 | 6.25 µg/mL |
